In US20150376261A1:

Tests used:
[1] = target: hMor1-34GS-Nb33 (human); assay: radioligand competition against [3H]-diprenorphine on Sf9 membranes
[2] = target: hMor1-34GS-Nb10 (human); assay: as above
[3] = target: hMor1-34GS-Nb33 (human); assay: ratio of the IC50s on hMor1-34GS-Nb10 (reference) and hMor1-34GS-Nb33 membranes, [3H]-diprenorphine competition

Substance | IC50 [1] [nM] | IC50 [2] [nM] | IC50Nb10/IC50Nb33 [3]
Dmt1-Dalda (peptide) | 18 | 655 | –
KGOP01 (peptide) | 3.8 | 76.7 | 20
